Assay results: patent publication US20170210812A1

B1: h62G7-EQ/L6/CD3 biFc (bispecific antibody, part only; not given: anti-CD3 arm and Fc, V domains shown, part only)
VH: QVQLVQSGAEVKKPGASVKVSCKASGYTFTDYTLHWVRQAPGQGLEWMGGIWPITGGTTYNQKFKGRVTMTRDTSTSTVYMELSSLRSEDTAVYYCARGEAQGSWGQGTLVTVSS
VL: DVVMTQSPLSLPVTLGQPASISCKSSQSLLYSNGKTYLNWFQQRPGQSPRRLIYQVSKLDSGVPDRFSGSGSGTDFTLKISRVEAEDVGVYYCGQDTHFPLTFGGGTKVEIK
B2: 42G9/CD3 biFc (bispecific antibody, part only; not given: anti-CD3 arm and Fc, V domains shown, part only)
VH: QVTLKESGPVLLKPTETLTLTCTVSGFSLSNPRMGVSWIRQPPGKALEWFAHIFSTDEKSLKLSLRSRLTLSKDTSKSQVVLTMTNMAPVDSATYYCARDSSNYEGYFDFWGQGTLVTVSS
VL: EVVLTQSPATLSVSPGERATLSCRASQSVRSNLAWYQQKSGQAPRLLIYGSTIRATGVPARFSGSGSGTEFTLTISSLQSEDFAVYYCQQYSDWPFTFGPGTKVDIK

Legend:
[1] = molecular target: EGFRvIII expressed on cells (human) (UniProt P00533); experiment: cell-based or functional assay
[2] = molecular target: wild-type EGFR expressed on cells (human) (UniProt P00533); experiment: cell-based or functional assay

| Binder | percentage of live target cells, DKMG with activated T cells, 1 nM antibody [1] [%] | percentage of live target cells, LN18-EGFRvIII with activated T cells, 0.01 nM antibody [1] [%] | percentage of live target cells, parental LN18 with activated T cells, 0.01 nM antibody [2] [%] | percentage of live target cells, LN229-EGFRvIII with activated T cells, 0.01 nM antibody [1] [%] | percentage of live target cells, parental LN229 with activated T cells, 0.01 nM antibody [2] [%] |
| --- | --- | --- | --- | --- | --- |
| B1 | 35 | 20 | 100 |  |  |
| B2 |  |  |  | 35 | 100 |
